These results are taken from publication PMC3413145.

Test in all cases: EMSA
Data set [1] addresses E. coli RNAP core enzyme;sigmaA (Escherichia coli;Mycobacterium …, UniProt P0A7Z4;P0A8V2;P0A8T7;P0A800;P9WGI1 1-329;1-1342;1-1407;1-91;1-528, |).
Data set [2] has as its target T1, RNAP core enzyme (alpha2 beta beta' omega);sigmaA;RbpA (Mycobacterium tuberculosis (H37Rv for …, UniProt P9WGZ1;P9WGY9;P9WGY7;P9WGY5;P9WGI1;P9WHJ5 1-347;1-1178;1-1316;1-110;1-528;1-111, ||)).
Data set [3] deals with RNAP core enzyme (alpha2 beta beta' omega);sigmaA (Mycobacterium tuberculosis (H37Rv for …, UniProt P9WGZ1;P9WGY9;P9WGY7;P9WGY5;P9WGI1 1-347;1-1178;1-1316;1-110;1-528, |)).
Data set [4] addresses T1, RNAP core enzyme (alpha2 beta beta' …). The source holds these as a separate data set.

Like-named read-outs stand apart in the source and are kept apart here.

B1: rrnAP3 promoter fragment (150 bp) (dsDNA)
DNA 1: ATCGAACGGGTATGCTGTTAGGCGACGGTCACCTATGGATATCTATGGATGACCGAACCTGGTCTTGACTCCATTGCCGGATTTGTATTAGACTGGCAGGGTTGCCCCGAAGCGGGCGGAAACAAGCAAGCGTGTTGTTTGAGAACTCAA
DNA 2: TTGAGTTCTCAAACAACACGCTTGCTTGTTTCCGCCCGCTTCGGGGCAACCCTGCCAGTCTAATACAAATCCGGCAATGGAGTCAAGACCAGGTTCGGTCATCCATAGATATCCATAGGTGACCGTCGCCTAACAGCATACCCGTTCGAT
Regarding B1, the binding result in data set [1], in data set [2] and in data set [3] was “binds” in each case.

B2: sinP3 promoter fragment (127 bp) (dsDNA)
DNA 1: TTTAAACAAAAAGTCTGCTCATCCTGGTCCGGCAGCCAGAAGTCATACCGTAAATCCTTTCTGAATGTGCTATAATATCACAAGGAAGGTGATGACATTGATTGGCCAGCGTATTAAACAATACCGT
DNA 2: ACGGTATTGTTTAATACGCTGGCCAATCAATGTCATCACCTTCCTTGTGATATTATAGCACATTCAGAAAGGATTTACGGTATGACTTCTGGCTGCCGGACCAGGATGAGCAGACTTTTTGTTTAAA
In the case of B2, the binding result in data set [4] was “binds”.
